Tests used:
[1] = molecular target: T1, recombinant human SIRPα variant 2 protein (human, UniProt P78324 31-370, limits assumed); test: SPR Biacore 8K, antibody captured, antigen analyte
T1 construct: polymorphic variant 2; also called SIRPα v2; hSIRPαV2
Protocol: The binding kinetics assay of antibody to antigen was performed using Biacore 8K system through human antibody capture approach. The […] Fc lgG were immobilized on CM5 sensor chip according to the manufactory's instruction. The test antibody was injected and captured by the immobilized anti-human Fc lgG. […] The assay system was regenerated by injection of 10 mM Glycine-HCl pH 1.5 for 30 seconds. The running buffer was HBS-EP+ (10 mM HEPES, pH 7.4, 150 mM NaCl, 3 mM EDTA and 0.05% P20). The assay temperature was 25° C., and the association and dissociation time were 180 and 600 seconds, respectively.

[2] = molecular target: T2, recombinant human PD-L1 His protein (human, UniProt Q9NZQ7 19-239); test: SPR Biacore T200, PD-L1 His on chip, sdAb analyte
T2 construct: not shown: His tag
Protocol: Affinity constant (Kd) of each sdAb and HCAb was determined by surface plasmon resonance (SPR) on a BIAcore T200 instrument. Briefly, PD-L1 His was amine-coupled to a CMS sensor chip at a density of no higher than 100 RU. […] Flow rate was 30 μl/min in all experiments. Association and dissociation phases were 5 and 10 min, respectively. The chip was regenerated using Glycine/HCl pH 1.5. Binding curves at different concentrations of sdAbs and HCAbs were used to calculate the kinetic parameters kₒₙ, koff and KD.

[3] = molecular target: human PD-L1 on CHO-K1 cells (human, UniProt Q9NZQ7 19-290); test: cell-based or functional assay
[4] = molecular target: T3, PD-L1 expressed on cells (UniProt Q9NZQ7 19-290, limits assumed); test: FACS binding test on PD-L1 cell line, Geom.Mean; unit from the axis log(nm)
T3 construct: whole, on cells

[5] = molecular target: PD-L1 (blocking assay of Example 11) (UniProt Q9NZQ7 19-239, limits assumed); test: cell-based or functional assay
PD-L1 (blocking assay of Example 11), sequence (Q9NZQ7 19-239 limits assumed): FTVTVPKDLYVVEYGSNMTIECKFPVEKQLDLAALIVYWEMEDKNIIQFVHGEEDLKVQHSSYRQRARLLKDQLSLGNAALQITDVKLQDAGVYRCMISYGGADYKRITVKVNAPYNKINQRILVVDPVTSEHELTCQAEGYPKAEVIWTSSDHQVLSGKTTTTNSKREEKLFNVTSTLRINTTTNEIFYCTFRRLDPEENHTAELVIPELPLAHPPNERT

T1 sequence (P78324 other isoform, or with tags, fused parts or gaps mutant limits assumed): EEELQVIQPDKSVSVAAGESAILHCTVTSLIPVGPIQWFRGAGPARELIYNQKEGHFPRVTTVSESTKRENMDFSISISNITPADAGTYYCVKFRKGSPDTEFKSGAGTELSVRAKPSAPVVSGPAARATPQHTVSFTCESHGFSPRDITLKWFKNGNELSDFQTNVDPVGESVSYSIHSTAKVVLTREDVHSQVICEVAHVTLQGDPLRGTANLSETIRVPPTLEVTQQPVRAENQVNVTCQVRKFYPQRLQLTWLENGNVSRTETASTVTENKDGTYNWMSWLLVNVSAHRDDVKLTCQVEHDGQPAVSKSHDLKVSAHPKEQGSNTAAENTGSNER
T2 sequence (Q9NZQ7 19-239 limits assumed): as the sequence (Q9NZQ7 19-239 limits assumed) above
human PD-L1 on CHO-K1 cells, sequence (Q9NZQ7 19-290): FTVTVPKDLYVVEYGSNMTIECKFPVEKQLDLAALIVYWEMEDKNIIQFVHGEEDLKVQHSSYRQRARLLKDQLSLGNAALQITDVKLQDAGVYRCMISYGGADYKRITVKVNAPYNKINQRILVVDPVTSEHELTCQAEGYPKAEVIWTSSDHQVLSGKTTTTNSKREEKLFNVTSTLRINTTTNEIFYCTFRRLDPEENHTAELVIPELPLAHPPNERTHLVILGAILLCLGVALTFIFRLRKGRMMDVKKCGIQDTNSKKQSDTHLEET
T3 sequence (Q9NZQ7 19-290 limits assumed): as the sequence (Q9NZQ7 19-290) above

Row | Binder | Kd [1] [nM] | koff [1] [s⁻¹] | kon [1] [M⁻¹ s⁻¹] | Kd [2] [nM] | koff [2] [s⁻¹] | kon [2] [M⁻¹ s⁻¹] | EC50 of PD-L1-based blockade assay (luciferase reporter) [3] [nM] | EC50 [4] [nM] | EC50, luminescence (RLU) in the PD-1/PD-L1 Blockade Assay [5] [nM]
1 | HSP210-03-hz51 (antibody, V domains shown, humanized 300A6A6, VH v5 + VL v1; also called SIRPa IgG#2 03-hz51) VH: QVQLVQSGAEVKKPGSSVKVSCKASGYTFTSNYIHWVRQAPGQGLEWMGWIYPGDADTNYNQKFNGRVTLTADKSTSTAYMELSSLRSEDTAVYYCAINYGGIWFAYWGQGTLVTVSS VL: DIQMTQSPSSLSASVGDRVTITCQASQDIGNKLIWYQQKPGKAPKLLIYYVTNLPGGVPSRFSGSGSGTDFTLTISSLQPEDFATYYCLQYKQNPLTFGQGTKLEIK | 3.03 | 0.001 | 331000 | – | – | – | – | – | –
2 | AS06778 sdAb (VHH, His6-tagged llama sdAb) VHH: QVQLVESGGGLVQAGGSLKLSCAASGRTFITYAMGWFRQAPGKERELVAAISWSGSSTYSADSVKGRFTISRDNAKNTVYLQMNSLKPEDTAVYYCAAEVSARTGEHLPKLMGDYWGQGTQVTVSS | – | – | – | 0.0233 | 4.42e-05 | 1.9e+06 | 20.1 | – | –
3 | PD-L1/SIRPa-HN1 (bispecific antibody, human IgG4 S228P, kappa, Format II: sdAb at the N-terminus of the heavy chain (248G3F6); also called PD-L1/SIRPα-HN1) heavy: not shown light: EIVLTQSPGTLSLSPGERATLSCRASSSVSSSYLYWYQQKPGQAPRLLIYSTSNLASGIPDRFSGSGSGTDYTLTISRLEPEDAAVYFCHQWYSYPRTFGGGTKVEIKRTVAAPSVFIFPPSDEQLKSGTASVVCLLNNFYPREAKVQWKVDNALQSGNSQESVTEQDSKDSTYSLSSTLTLSKADYEKHKVYACEVTHQGLSSPVTKSFNRGEC | – | – | – | – | – | – | – | 0.311 | –
4 | AS06628 sdAb (VHH, His6-tagged llama sdAb) VHH: QVQLVESGGGLVQAGGSLRLSCAASGRTFITYAIGWFRQAPGKEREFVTAINWSGSMTSYADSVKGRFTISRDNNKNMVYLQMNSLKPEDTAVYYCAAHRGAIAPMTQSVYDYWGQGTQVTVSS | – | – | – | 0.0526 | 0.000215 | 4.1e+06 | 24.2 | – | –
5 | AS06703 sdAb (VHH, His6-tagged llama sdAb) VHH: EVQLVESGGGLVRAGGSLRLSCAASGRTFITYAIGWFRQAPGKEREFVTAINWSGSMTSYADSVKGRFTISRDNNKNTVYLQMNSLKPEDTALYYCAAHLGAIAPMSQSVYDYWGQGTQVTVSS | – | – | – | 0.0387 | 6.96e-05 | 1.8e+06 | 15 | – | –
6 | AS06791 sdAb (VHH, His6-tagged llama sdAb) VHH: QVQLVESGGGLVQAGGSLRLSCAASGRTFITYAIGWFRQAPGKEREFVTAINWSGSMTSYADSVKGRFTISRDNAKNTVYLQINGLKSEDTAVYYCAAHRGAIAPMTQSVYDYWGQGTQVTVSS | – | – | – | 0.153 | 0.000239 | 1.56e+06 | 36.5 | – | –
7 | AS06730 sdAb (VHH, His6-tagged llama sdAb) VHH: QVQLVESGGGLVQAGGSLRLSCAASGRTFITYAIGWFRQAPGKEREFVSAINWSGSMTSYADSVKGRFTISRDNAKNTVYLQMNGLKPEDTAVYYCAAHRGAIAPIAQSVYTNWGQGTQVTVSS | – | – | – | 0.0195 | 0.000139 | 7.11e+06 | 17.2 | – | –
8 | PD-L1/SIRPa-HC2 (bispecific antibody, human IgG4 S228P, kappa) heavy: not shown light: DIQMTQSPSSLSASVGDRVTITCQASQDIGNKLIWYQQKPGKAPKLLIYYVTNLPGGVPSRFSGSGSGTDFTLTISSLQPEDFATYYCLQYKQNPLTFGQGTKLEIKRTVAAPSVFIFPPSDEQLKSGTASVVCLLNNFYPREAKVQWKVDNALQSGNSQESVTEQDSKDSTYSLSSTLTLSKADYEKHKVYACEVTHQGLSSPVTKSFNRGEC | – | – | – | – | – | – | – | – | 1.28
9 | HSP210-02-hz52 (antibody, V domains shown, humanized 248G3F6, VH v5 + VL v2; also called SIRPa IgG#1 02-hz52) VH: QVQLVQSGAEVKKPGASVKVSCKASGFNFEDTYMHWVRQAPGQGLEWMGRIDPADADTKYNPKFQDRVTITVDTSTNTAYMELSSLRSEDTAVYYCVRGNYVNWGQGTTVTVSS VL: EIVLTQSPGTLSLSPGERATLSCRASSSVSSSYLYWYQQKPGQAPRLLIYSTSNLASGIPDRFSGSGSGTDYTLTISRLEPEDAAVYFCHQWYSYPRTFGGGTKVEIK | 7.4 | 0.00247 | 333000 | – | – | – | – | – | –
10 | PD-L1/SIRPa-LC1 (bispecific antibody, human IgG4 S228P, kappa) heavy: not shown light: EIVLTQSPGTLSLSPGERATLSCRASSSVSSSYLYWYQQKPGQAPRLLIYSTSNLASGIPDRFSGSGSGTDYTLTISRLEPEDAAVYFCHQWYSYPRTFGGGTKVEIKRTVAAPSVFIFPPSDEQLKSGTASVVCLLNNFYPREAKVQWKVDNALQSGNSQESVTEQDSKDSTYSLSSTLTLSKADYEKHKVYACEVTHQGLSSPVTKSFNRGECGGGGSGGGGSGGGGSEVQLVESGGGLVQPGGSLRLSCAASGRTFVTYGMGWFRQAPGKGREFVSAISWSGSMTSYGDSVKGRFTISRDNAKNTLYLQMNSLRPEDTAVYYCAAALGAVVYTTREPYTYWGQGTLVTVSS | – | – | – | – | – | – | – | – | 1.36
11 | AS06686 sdAb (VHH, His6-tagged llama sdAb) VHH: AVQLVESGGGLVQAGDSLRLACAASGRTFLTYALGWFRQAPGKEREFVAGVSWSGSSTKYADSVKGRFTISRDNAKNTVYMQMNSLKPEDTAVYYCAAQISAIVPISAHEYQYWGQGTQVTVSS | – | – | – | 0.346 | 0.000965 | 2.79e+06 | 352 | – | –
12 | PD-L1/SIRPa-LN1 (bispecific antibody, human IgG4 S228P, kappa) heavy: not shown light: EVQLVESGGGLVQPGGSLRLSCAASGRTFVTYGMGWFRQAPGKGREFVSAISWSGSMTSYGDSVKGRFTISRDNAKNTLYLQMNSLRPEDTAVYYCAAALGAVVYTTREPYTYWGQGTLVTVSSGGGGSGGGGSGGGGSEIVLTQSPGTLSLSPGERATLSCRASSSVSSSYLYWYQQKPGQAPRLLIYSTSNLASGIPDRFSGSGSGTDYTLTISRLEPEDAAVYFCHQWYSYPRTFGGGTKVEIKRTVAAPSVFIFPPSDEQLKSGTASVVCLLNNFYPREAKVQWKVDNALQSGNSQESVTEQDSKDSTYSLSSTLTLSKADYEKHKVYACEVTHQGLSSPVTKSFNRGEC | – | – | – | – | – | – | – | – | 1.13
13 | AS11947 sdAb (VHH, His6-tagged llama sdAb) VHH: DVQLVESGGGLVQAGDSLRLTCSASGRTFISYAVGWFRQAPGTEREFVAGIRWNGISTDYTDSVKGRFTISRDNAKNTVYLQMNSLKPEDTAIYYCAAHRTIATIPNKYEYDHWGQGTQVTVSS | – | – | – | 0.617 | 0.00118 | 1.92e+06 | 77.2 | – | –
14 | AS11948 sdAb (VHH, His6-tagged llama sdAb) VHH: EVQLVESGGGLVQAGDSLRLSCVASGRTFVTYGMGWFRQAPGKEREFVAAINWSGSMTSYGDSVKGRFAISRDNAKNTVYLQMNSLKPEDTAVYYCAAALGAVVYTTREPYTYWGRGTQVTVSS | – | – | – | 0.167 | 0.000394 | 2.37e+06 | 25.2 | – | –
15 | AS06750 sdAb (VHH, His6-tagged llama sdAb) VHH: AVQLVESGGGLVQAGDSLRLSCTASGRTFLTYAVGWFRQAPGTEREFVAGIRWSGGYTDYADSVKGRFTISRDNAKNTVYLQMNSLKPEDTAVYYCAAHRTIATIPEKYEYEYWGQGTQVTVSS | – | – | – | 0.109 | 0.000223 | 2.05e+06 | 33.6 | – | –
16 | AS06775 sdAb (VHH, His6-tagged llama sdAb) VHH: QVQLVESGGGLVQAGDSLRLSCAASGRTFLTLAVGWFRQAPGTEREFVAGIRWSGSGTDYADSVKGRFTISRDNAKNTVYLQMNSLKPEDTAVYYCAAHTTIATIPEKYEYEYWGRGTQVTVSS | – | – | – | 0.156 | 0.000247 | 1.58e+06 | 75.5 | – | –
17 | AS06618 sdAb (VHH, His6-tagged llama sdAb) VHH: EVQLVESGGRLVRAGDSLRLSCAASGRTFLSYAVGWFRQAPGTEREFVAGIRWSGGYTDYAEAVKGRFTISRDNAKNTVYLQMNSLKPEDTAVYYCAAHRTIATIPEKYEYEYWGQGTQVTVSS | – | – | – | 0.17 | 0.000245 | 1.44e+06 | 44.5 | – | –
18 | AS06682 sdAb (VHH, His6-tagged llama sdAb) VHH: AVQLVESGGGLVQAGDSLRLSCTASGRTFLSYAVGWFRQAPGTEREFVAGIRWSGEHTDYAASVKGRFTISRDNAKNTVYLQMNSLKPEDTAVYYCAAHTTIATIPKKYEYEYWGQGTQVTVSS | – | – | – | 0.203 | 0.000342 | 1.68e+06 | 42 | – | –
19 | AS06617 sdAb (VHH, His6-tagged llama sdAb) VHH: DVQLVESGGGLVQAGDSLRLSCAASGRTFISYAVGWFRQAPGSEREFVAGIRWNGIHTDYADSVKGRFTISRDNAKNTVTLEMTSLKPEDTAVYYCAAHRTIATIPEKYEYEYWGQGTQVTVSS | – | – | – | 0.249 | 0.000464 | 1.86e+06 | 63.8 | – | –
20 | AS12003 sdAb (VHH, His6-tagged llama sdAb) VHH: EVQLVESGGGLVQAGDSLRLSCAASGRTFLSYAVGWFRQAPGTEREFVAGIRWSGGSTDYADSVKGRFTISRDNAKNTVYLQMNSLKPEDTAVYYCAAHRTIATVPNKYEYDTWGQGTQVTVSS | – | – | – | 0.56 | 0.00155 | 2.76e+06 | 96.2 | – | –
